This is an account of results in patent US20250011448A1 (STAIDSON BIOPHARMA, published 2025).

Sequences and labels used below:
T1: human TNFR2 extracellular domain with C-terminal 10×His tag (human, UniProt P20333 23-257)
T1 construct: also called huTNFR2-His; His-tag-huTNFR2
T1 sequence: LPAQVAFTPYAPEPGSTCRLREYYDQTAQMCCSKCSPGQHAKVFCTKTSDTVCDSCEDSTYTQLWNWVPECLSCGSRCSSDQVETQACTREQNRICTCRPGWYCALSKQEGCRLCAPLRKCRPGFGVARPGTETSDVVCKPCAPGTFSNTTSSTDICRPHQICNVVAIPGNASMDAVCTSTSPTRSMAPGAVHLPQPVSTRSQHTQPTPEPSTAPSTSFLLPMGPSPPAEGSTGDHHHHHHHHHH

B1: 29G3 chimeric anti-TNFR2 antibody (antibody, V domains shown)
VH: EVMLVESGGASVKPGGSLKLSCAASGFTFSNFAMSWVRQTPEKRLEWVATIRSGDNYSYYSDNVKGRFTISRDNARNTLYLQMSSLRSKDTSIYYCARNWDKVFDYWGQGTTLTVSS
VL: DIVLTQSPASLAVSLGQRATISCRASESVDSYGYSFMHWYQQKPGQPPKLLIYRASNLKSGIPARFSGSGSRTDFTLTINPVEADDVATYYCQQSNEDHTFGGGTKLEIK
notes: Chimeric: mouse variable domains with human constant regions, made as recombinant IgG1
B2: 15H10 chimeric anti-TNFR2 antibody (antibody, V domains shown)
VH: DVQLQESGPGLVTPSQSLSLTCSVTGYSITSGYYWNWIRQFPGNKLEWMGYITYDGNNNYNPSLKSRFSITRDTSKNQFFLKLNSVTSEDTATYYCARGDYGDSAMDYWGQGTSVTVSS
VL: EIVLTQSPAITAASLGQKVTITCSASSGVNYMHWYQQKSGTSPKPWIYEISKLASGVPARFSGSGSGTSYSLTISSMEAEDAAIYYCQQWNYPLITFGAGTKVELK
notes: as for B1
B3: 11C1 chimeric anti-TNFR2 antibody (antibody, V domains shown)
VH: DVQLRESGPGLVTPSQSLSLTCSVTGYSITSGYYWNWIRQIPGNKLEWMGYITYDGNNNYDPSLKNRISITRDTSKNQFFLTLNSVTSEDTATYYCARGDYGDSAMDYWGQGTSVTVSS
VL: EIVLTQSPAITAASLGQKVTITCSASSSVSYMHWYQQKSGTSPKPWIYEISKLASGVPARFSGSGSGTSYSLIISSMEAEDAAIYYCQQWNYPLITFGAGTKLELK
notes: as for B1
B4: 85G8.4 chimeric anti-TNFR2 antibody (antibody, V domains shown)
VH: EVQLQQSGPELVKPGASVKISCKTSGYTFTDFNMDWVKQSHGKSLEWIGYINPNNGDAAYNQKFKSKATLTVDKSSNTAYMELHSLTSDDSAVYYCARWGWAFAYWGQGTLVTVSA
VL: DIVMTQSHKIMSTSVGDRVSITCKASQDVKTAVAWYQQKPGQSPKLLIYATSYRYTGVPDRFTGSGSGTDFTFTISTVQAEDLAVYYCQQHYSIPYTFGGGTKLEIK
notes: as for B1

The assay deals with T1, human TNFR2 extracellular domain with …. Kind of assay: ELISA, plate coated with His-tagged TNFR2 ECD, serial dilution of chimeric IgG. On the technique in general: An ELISA detects its analyte on a solid surface through an enzyme-linked reagent.
For B1, the EC50 (usually the concentration at which the effect is half-maximal) stood at 0.0293 nM.
The value for B2 was 0.051 nM; that for B3 was 0.0508 nM; that for B4 was 0.039 nM.
